The nanobody polyreactivity screen of Harvey et al. (2022)

experiment: yeast display, Sf9 membrane polyspecificity reagent, FACS + sequencing; frameworks hold sequencing errors
Procedure, shortened: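 After 36–48 hours of galactose induction, yeast (Saccharomyces cerevisiae BJ5465) displaying a synthetic nanobody library were stained at 4 °C for 1 hour with 10% biotinylated, detergent-solubilized Sf9 membrane reagent. Streptavidin microbeads enriched the stained cells before FACS sorting into low and high (top ~1%) gates on anti-HA and streptavidin fluorescence. Each clone's polyreactivity label reflects its gate of origin.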

Sequence	polyreactivity (PSR sort gate)
QVQRVESGGGLVQAGGSLLLSCAPSGSIFSDNSMGWYRQAPGKERELVAAITSGGDTKYADSVKGRFTISRDNAKNTVYLQMNSLKPEDTAFYYCAAGIRYQASFDSWGQGTQVTVSS	low polyreactivity
QVQRVESGGGLVQAGGSLRISCAASGRTFRKYAMGWYRQARGKERELGAAMSWSGGSTYYANSVKGRFPISRDKPKNTVYLQMNSLKPEETAVYYCASDVDRFYTYKYDYWGQGTQVTVSS	low polyreactivity
QVQRVESGGGLVQAGGSLRLSCAASGFIISWYAMGWSRQAPGKERELVAAISSGGSTTYADSVKGRFTISRDNAKNTVSLQMNSLKPEDTAVYYCNADQVYGYNYWGQGTQVTVSS	high polyreactivity
QVQRVESGGGLVQAGGSLRLSCAASGFILNQYAMGWYRQAPGKASELVAAISNGGSTNYADSVKGRFTISRDNAKNTVYLQMNSLKPEDTAVYYCAKDQSLTYSSLWGYDYWGQGTQVTVSS	low polyreactivity
QVQRVESGGGLVQAGGSLRLSCAASGFTFTDYAMGWYRQAPGKERELVAAITIGGGRTYYADSVKGRFTISRDNAKNTVYLQMNSLKPEDTAVYYCNARYQVPYGYWGQGTQVTVSS	low polyreactivity
QVQRVESGGGLVQAGGSLRLSCAASGGIVSAYAMGWYRQAPGKEREFVASISRRGGSTYYADSVKGRFTISRDNAKNTVYFQMNSLKREDTAVSYCNARKYFEKSREYWGQGTQVTVSS	high polyreactivity
QVQRVESGGGLVQAGGSLRLSCAASGIFYWYGMGWYRQAPGKDRELVASITGGGRTYYADSVKGRFTISRDNAKNTVYLQMNSLKPEDTAVNYCATRYWGGLPRRWYDYWGQGTQVTVSS	high polyreactivity
QVQRVESGGGLVQAGGSLRLSCAASGIIFPHNAMGWYRQAPGKERELVATISRSGARTYYADSVKGRFTISRDNAKNTVYLQMNSLKPEDTAVYYCAVQRLVYVYGAYDYWGQGTQVTVSS	high polyreactivity
QVQRVESGGGLVQAGGSLRLSCAASGLTFPSYAMGWYRQAPGKERELVATISNGSSTYYADSVKGRFTISRDNAKNTVYLQLNSLKPEDTAVYYCAKDYYYSRNPLYGHDYWGQGSQVTVSS	low polyreactivity
QVQRVESGGGLVQAGGSLRLSCAASGRIFRGNAMGWYRQAPGKERELVAAITSSGDSTFYADSVKGRFTISRDNANNTVYLQMNSLKPEDTAVYYCNALVQGKEYYWGQGTQVTVSS	high polyreactivity
QVQRVESGGGLVQAGGSLRLSCAASGRTFGPNAMGCYRQSPGKERELVAAITSGGRTYYADSVKGRFTISRDNAKNTVYLQMNSLKPEDTAVYYCAASYRWRSSGKGKYDYWGQGTQVTVSS	high polyreactivity
QVQRVESGGGLVQAGGSLRLSCAASGRTFGYNAMGWYRQAPGKERELVAAISSSGGSTYYADSVKGRFTISRDNAKNTVYLQMNSLKPEDTAVYYCATQGYSWAHGSDYWGQGTQVTVSS	low polyreactivity
QVQRVESGGGLVQAGGSLRLSCAASGRTLRYKGLYRQAPGKERELVAAITTGVSTNYADSVKGRFTISRDNAKNTVYLQMNSLKPEDTAVYYCAARARGTVYQYYYWGQGTQVTVSS	high polyreactivity
QVQRVESGGGLVQAGGSLRLSCAASGSIFEGYAMGWYRQAPGKQRELVARITSDDDSTYYADSVKGRFTISRDNAKFSVYLQMNSLIPEDTAVYYCNADYYWTSLAMDSWGQGTQVTVCS	low polyreactivity
QVQRVESGGGLVQAGGSLRLSCAASGSIFVFYAMGWYRQAPGKERELVATISSVGRTNYADSVKGRFTISRDNAKNTVYLQMNSLKPEDTAVYYCAARRFRGSYYWGQGTQVTVSS	high polyreactivity
QVQRVESGGGLVQAGGSLRLSCAASGSIFWRNAMGWSRQAPGKERELVAAITSGGSTDYADSVKGGFRISRDTAKNTVYLQIHSLKPEDPAVYYCAAVTWSGWDGYYYWGQGTQVTVSS	low polyreactivity
QVQRVESGGGLVQAGGSLRLSCAASGSIYRWNARGWSRQATGKERELVAVINSSGGSTYYADSVKGRFTISRDNAKNTVYLQMNSLKPEDTAVYYCAADLFLECSSQYAPNWWPDGWNTYRLLGGYWGQGTQVTVSS	low polyreactivity
QVQRVESGGGLVQAGGSLRLSCAASGSTFARYAMGWYRQAPGKEREFVAAITYSGGRTYYADTVKGRFTISRDNAKNTVYLQMNSLKPEDTAVYYCAARRRYRYDYWGQGTQVTVSS	high polyreactivity
QVQRVESGGGLVQAGGSLRLSCAASGSTFDRNAMGWYRQAPGKERELVAAIDYSGGSTYYADSVKGRFTISRDNAKNTVYLQMNSLKPEDTAVYYCAARVDGPDYSDGNYWGQGSQVTVSS	low polyreactivity
QVQRVESGGGLVQAGGSLRLSCAASGSTFEYYAMGWYRQAPGKERELVAAISGGGSTNYADSVKGRFTISRDNAKNTVYLQMNSLTPEVTAVYYCNASDVGSRTSNYWGQGTQVTVSS	low polyreactivity
QVQRVESGGGLVQAGGSLRLSCAASGSTIAKNAMGWYRQAPGKERELVAAISRGGNTYYADSVKGRFTISRDNAKNTVYLQMNSLKPEDTAVYYCAARYLYRSLKMDYWGQGTQVTVSS	high polyreactivity
QVQRVESGGGLVQAGGSLRLSCAASGVIFDDNAMGWYRQAPGKERELVAAITYRGGSTYYADSVKGRFTISRDNAKNTVYLQMNSLKPEDTAVYYCAAGGTARDDSWGQGTQVTVSS	low polyreactivity

Sequence	polyreactivity (PSR sort gate)
QVQRVESGGGLVQAGGSLRLSCAASRSIVNIYAMGWDRPAPGKERELVATITGIADSTYYADSVKGRFTISRDNAKNTVYLQMNSLKPEDTAVYYCAIYVSWPLYYYWGHGTQVTVSS	low polyreactivity
QVQRVESGGGLVQAGGSLRLSCAPSGSTFPSYAMGWYRQAPGKERELVAAITRRGGRTYYADSVKGRFTISRDNAKKTVYLQMNSLKPEDTAVYYCNRVSRKILDGDYDYWGQGTQVTVSS	high polyreactivity
QVQRVESGGGLVQAGGSLRLSCPASGRIFRYYAMGWYRPAPGKEREMVARITRNGGTTYYADSVKGRFTISRDNAKNTVYLQMNSLKPEDTAVYYCAATYSVPYYGAWPEYDYWGQGTQVTVSS	high polyreactivity
QVQRVESGGGLVQAGGSLRLSCPASGSTKFNAMGWNRQPPGKERELVATITANGDSTYYADSVKGRFTISRDNAKNTVYLQMNSLKPEDTAVYYCNADAYIRMDSWGQGTQVTVSS	low polyreactivity
QVQRVESGGGLVQAGRSLRLSCAASGRTFTVYAMGWYRQAPGKERELVAGIRRGDSTYYADSVKGRFTISRDNAKHTVYLQMNSLKPEDTAVYYCNARTSGSSYYYWGQGTQVTVCS	high polyreactivity
QVQRVESGGGLVQARGSLRLSCAASGSTFPAYAMGWYRQARGKEREWVATITYTGGSTFYADSVKGRFTISRDNAKNTVYLQMNILKPEDTEVYYCAADRGDQEDEFDYWGQGTQVTVSS	low polyreactivity
QVQRVESGGRLVQAGGILRVSCAASGGTFGINAMGWYRQSPGKEREFVAAITRGDGSTYYADSVKGRFTISRDNAKNTVFIQMKSLKPEDTAVYYCAKRYFVYYSMDYWGQGTQVTVSS	low polyreactivity
QVQRVESGRGLVQAGGSLRLSCAASGRTFRINAMGWYRQSPGKERELVASINSGGRTYYADSVKGRFTISRDNAKNTVYLQMNSLKPEDTAVYYCAAAGGRTGDYWGQGTQVTGSS	high polyreactivity
QVQRVESRGGLVKSGGSLRLSSASSGSTFRWYAMGWYRQAPGKERELVARINTRGGGTYYADSVKGRFTISRDNAKNTVYLQMNSLKPEDTAVYYCAAYSSWSGGLGGDYYWGQGTQVTVSS	low polyreactivity
QVQRVESRVSLVQEGGSLRLSCASSGLIYYRYTMGCYINAPVKEREVFAAISSGGRTYYADSVKGRFTISRDNAKNTVYLQMNSLKPEDTAVYYCATRVYSVHAPSAVPIGGYYWGQGTQVTVSS	high polyreactivity
QVQRVESVGGLVQAGGRLRLSCAASGRTFVYYTMGWYRQAPGKERELVAAISWNGDDTYYADSVKGRFTISRDNAKNTVYLQMNSLKPEDTAVYYCAKESYTDYDTYYYWGQGTQVTVSS	low polyreactivity
QVQVEESGGGLVQAGGSLRLSCAASGSIFNRYAMGWYRQAPGKERELVAAISRSGSTYYADSVKGRFTISRDNAKNTVYLQMNSLKAEDTEVYYCNARGTTHHTSYDYWGQGTQVTVSS	low polyreactivity
QVQVVESGGALVQEGGSLRISCAASGSIFAIYVLGWSRQAPGKERELVAAITGSGGSTYYADSVKGRFTISRDNAKITVYVQMNSQKPEDTAVYYCAARVLRVRTLTTTWGQGTQVTVSS	high polyreactivity
QVQVVESGGGFVQAGGSLRLSCAASGFTYYSYAMGWYRQAPGKEREFVAAGSTYYADSVKGRFTISRDNAKNTVYLQMNSLTPEDTAVYYCAADPWIYVQSYGYWGQGTQVTVSS	low polyreactivity
QVQVVESGGGLLQAGGSLRLSCAASGSTFGWYAMGWYRQAPWKERELVAANTGDSASTYYADSVKGRFTISRDNAKNTVYLQMNSLKPEDTAVYYCAASKFSDFGYQAVIGYGYWGQGTQVTVSS	low polyreactivity
QVQVVESGGGLLQAGGSLRLSCASSGSTFQYNAMGRYRPAPRKERELVAVITRRGGRTYYADSVKGRFTISRDNAKNTVYLQMNSLKPEDTAVYYCAAYYDYTHRFYYWGQGTQVTVSS	high polyreactivity
QVQVVESGGGLVKAGGSLSLSCDASGITFVAYAMGWYRQAPGKERELVAAISYNGGSTNYADSVKGRFTISRDNAMNTVYLQINSLKPEDTAVFYCAADLADFYPRFNYWGQGTQVTVSS	low polyreactivity
QVQVVESGGGLVNAAGSLRLSCAPSVSTSKWYTMGWDRQAPGKERELVAAITGSGGSTFYADSVKGRFTISRDNAKNTVYLQMHSLKQEDTAVYYCAADVYGGGVSFRFRYDSWGQGTQVTVSS	low polyreactivity
QVQVVESGGGLVPAGGSLRLSCAASGRIFADNDMGWYRQAPGKERELVAGISSGGGTYADSVKGRFSISRDNAKNTVSVQTNSPKPEDTAVHYCNALHAYYVLTPYDYWGQGTQVTVSS	low polyreactivity
QVQVVESGGGLVQAGGSLRLSCAASGFIFSFYAMGWYRQAPGKERELVAAINWSGGSTYYADSVKGRFTISRDNAKNTVYLQMNSLKPEDTAVYYCNAVQYFSIPKPVWLFVLRYYYWGQVTQVTVSS	low polyreactivity
QVQVVESGGGLVQAGGSLRLSCAASGFIFWEYAMGWYRQAAVKECELVSAISTSGGSTYYADSVKGRFTISRDNAMNSVYLQKNCLKQEDTAVYYCATDVYSGPLLKYDYWGQGTKVTVSS	low polyreactivity
